Experiment [1] deals with Halo-tagged isopeptide-blocker (Spy0128 β-strand11 mimic) (Streptococcus pyogenes). The experiment can be described thus: pull-down.
Experiment [2] concerns the target Spy0128 polyprotein I91-Spy0128-I91-Spy0128-I91 (not stated | Streptococcus pyogenes). The experiment can be described thus: AFM force spectroscopy.

Ends that are not written are not given here.

Our source for the percent of modified Spy0128 after enrichment on Magne-HaloTag-beads, percent of AFM traces with and percent of Spy0128 blocked values is publication doi:10.1101/310227.

In the case of “Spy0128 polyprotein I91-Spy0128-I91-Spy0128-I91”, in experiment [1], the percent of modified Spy0128 after enrichment on Magne-HaloTag-beads is 60%.
Turning to MEFTDKDMTITFTNKKDAEEDIRSEDLYFQSDNTTPE (also: Halo-tagged, site not given here) [Halo-tagged isopeptide-blocker (Spy0128 β-strand11 mimic)], in experiment [2], the percent of AFM traces with at least one modified Spy0128 stood at 32.5% and the percent of Spy0128 blocked amounted to 21.1%.
